Legend:
[1] = target: T1, Biotin-… antigenic peptide (epitope sequence from candidal Hsp90) (Candida ("candidal Hsp90")); test: ELISA, biotinylated hsp90 peptide on streptavidin plate, anti-His-HRP detection; % activity against Mycograb reference standard; site 2; sample in 0.5 M urea, 0.2 M L-arginine pH 9.5
[2] = target: T1, Biotin-… antigenic peptide (epitope …); test: ELISA, biotinylated hsp90 peptide on streptavidin plate, anti-His-HRP detection; % activity against Mycograb reference standard; site 1; sample in 50 mM Tris, 3 mM DTT, pH 9.0
[3] = target: T1, Biotin-… antigenic peptide (epitope …); test: ELISA, biotinylated hsp90 peptide on streptavidin plate, anti-His-HRP detection; % activity against Mycograb reference standard; site 2; sample in 50 mM Tris, pH 9.0
[4] = target: T1, Biotin-… antigenic peptide (epitope …); test: ELISA, biotinylated hsp90 peptide on streptavidin plate, anti-His-HRP detection; % activity against Mycograb reference standard; site 1; sample in 50 mM Tris, 1 M sucrose, ~0.2% Tween20, 3 mM DTT, pH 3.0
[5] = target: T1, Biotin-… antigenic peptide (epitope …); test: ELISA, biotinylated hsp90 peptide on streptavidin plate, anti-His-HRP detection; % activity against Mycograb reference standard; site 2; sample in 50 mM Tris, 1 M sucrose, ~0.2% Tween20, 3 mM DTT, pH 3.0
[6] = target: T1, Biotin-… antigenic peptide (epitope …); test: ELISA, biotinylated hsp90 peptide on streptavidin plate, anti-His-HRP detection; % activity against Mycograb reference standard; site 1; sample in 50 mM Tris, pH 9.0
[7] = target: T1, Biotin-… antigenic peptide (epitope …); test: ELISA, biotinylated hsp90 peptide on streptavidin plate, anti-His-HRP detection; % activity against Mycograb reference standard; site 2; sample in 50 mM Tris, 3 mM DTT, pH 9.0
[8] = target: T1, Biotin-… antigenic peptide (epitope …); test: ELISA, biotinylated hsp90 peptide on streptavidin plate, anti-His-HRP detection; % activity against Mycograb reference standard; site 1; sample in 0.5 M urea, 0.2 M L-arginine pH 9.5

- ELISA Site 2 [%] (activity compared with the reference) [1]: 78%
- ELISA Site 1 [%] (activity compared with the reference) [2]: 85%
- ELISA Site 2 [%] (activity compared with the reference) [3]: 95%
- ELISA Site 1 [%] (activity compared with the reference) [4]: 135%
- ELISA Site 2 [%] (activity compared with the reference) [5]: 130%
- ELISA Site 1 [%] (activity compared with the reference) [6]: 71%
- ELISA Site 2 [%] (activity compared with the reference) [7]: 131%
- ELISA Site 1 [%] (activity compared with the reference) [8]: 90%
B1: MYC123 ("wild type" Mycograb) scFv peptide (scFv)
scFv: MAEVQLVESGAEVKKPGESLRISCKGSGCIISSYWISWVRQMPGKGLEWMGKIDPGDSYINYSPSFQGHVTISADKSINTAYLQWNSLKASDTAMYYCARGGRDFGDSFDYWGQGTLVTVSSGGGGSGGGGSGGGGSDVVMTQSPSFLSAFVGDRITITCRASSGISRYLAWYQQAPGKAPKLLIYAASTLQTGVPSRFSGSGSGTEFTLTINSLQPEDFATYYCQHLNSYPLTFGGGTKVDIKRAAALEHHHHHH

Reference: US20100113355A1
